T1: Myo5 SH3 (MYO5_YEAST), Q04439
T1 chain: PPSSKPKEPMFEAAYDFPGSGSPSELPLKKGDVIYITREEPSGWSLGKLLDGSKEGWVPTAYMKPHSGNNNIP


Biological target: T1, Myo5 SH3 (MYO5_YEAST), Q04439
Experiment: SPOT array

Binder	normalised SPOT signal, Boehringer light units (BLU); mean over the file's lines of this peptide
VFGTYLGPDAPLSK [YMR272C 367-380]	130
VAPGLWFPNSPPPL [YPL128C 101-114]	4830
TFRDMDLPQHPVIH [YLR030W 45-58]	188
SPSTMDFPKLPSFQ [YPL089C 234-247]	467
VLLPLRLPEIPPKG [YFL036W 1323-1336]	1070
VLFNLDHPMVPENL [YAL018C 292-305]	220
TEDGFVIPALPAAV [YPR190C 407-420]	290
VAVPFTLPVIPYDL [YBR223C 517-530]	240
TLFRFIVPFNPYFS [YLR198C 4-17]	882
VFLRLISPTRPSLE [YOR249C 40-53]	1640
VLEAYNVPTPPRLE [YLR410W 284-297]	57.4
TLEWLLTPYTPGDD [YLR422W 982-995]	164
VLGVLNVPLPPQTR [YGL197W 857-870]	233
VLKGFYSPSAPSYD [YOR029W 22-35]	290
TFSIYSIPSKPGES [YPL100W 474-487]	227
TPTHHHIPHIPNQN [YPR065W 331-344]	148
VLKNLPTPGEPFNF [YML131W 8-21]	148
TLHELGVPITPIAF [YOR184W 245-258]	119
TLRSMIPPFTPQLD [YGR092W 484-497]	413
SPSTHAAPVTPIIS [YNL027W 321-334]	53.3

Binder	normalised SPOT signal, Boehringer light units (BLU); mean over the file's lines of this peptide
TASQLQNPPPPPST [YGR086C 14-27]	168
VFKFLFHPVTPSHF [YJL005W 768-781]	565
TWKMHLWPVSPPQL [YLR039C 34-47]	224
SWAVLPVPGGPVMY [YJL195C 85-98]	69.2
TLKKFVLPSLPRKN [YOR034C 339-352]	504
VELHFPKPEDPASI [YMR246W 254-267]	14.9
TEEILPTPVQPGGH [YOL070C 304-317]	121
SWLTMLPPMAPLLS [YMR158W-A 93-106]	505
TPPPPPLPSVLSS [YNL271C 1302-1314]	25800
VAWSHDSPKPPSDR [YHR163W 199-212]	30.6
SPRHYNVPSSPIAP [YIL101C 572-585]	233
SWRSLTKPKIPLYK [YMR287C 119-132]	357
TPINFVFPNLPLEH [YHR007C 237-250]	81.8
VAKSYGFPVPPKVN [YMR290C 473-486]	259
VEPEWYLPILPMIL [YNL088W 813-826]	236
VLIKFVIPVYPSLP [YGR099W 37-50]	562
VAGYFVIPHTPMPS [YOR378W 217-230]	180
SPSQYQYPSQPALS [YKL146W 143-156]	65.2
TLPPLSSPMNPNGH [YDR096W 584-597]	252
VFSSLRDPVIPIKL [YGL195W 2560-2573]	132

Binder	normalised SPOT signal, Boehringer light units (BLU); mean over the file's lines of this peptide
SPSDFNKPDLPELI [YER003C 229-242]	317
SPVPLGSPRGPLPV [YLR163C 237-250]	135
TAWDMVPPYSPLSE [YPR090W 8-21]	127
TEGKYAPPSQPSMA [YDL195W 822-835]	223
TPTPHPHPHTPHPH [YHR217C 42-55]	158
VFSLMNSPAYPDVQ [YIL001W 264-277]	153
TAPIHSTPKPPPND [YHR182W 732-745]	77.7
TLATLTEPKLPKSY [YOL111C 18-31]	18
VLKTLAFPINPSDI [YBR026C 53-66]	156
TPMDFPEPVGPLAI [YPL154C 366-379]	175
TPSNMGSPGSPVNV [YOL148C 21-34]	156
VEVIMHSPSDPEYA [YML117W 995-1008]	150
TAAELQAPPPPPSS [YPL004C 14-27]	315
TLIEYMGPAPPKGS [YLR178C 145-158]	133
SPVNLLKPFNPTLP [YJL050W 730-743]	123
SPRSLPTPILPSMS [YML083C 47-60]	193
VARPLSVPGSPRDL [YLR258W 646-659]	186
TPYQLLSPILPVLL [YBR136W 679-692]	287

Source: PMC314469, “Protein Interaction Networks by Proteome Peptide Scanning” (PLoS Biology, 2004)
